From paper PMC6318328, “Structural insights into trans-histone regulation of H3K4 methylation by unique histone H4 binding of MLL3/4” (Nature Communications, 2019)

Assays:
[1] = Gel filtration, oligomeric state in solution; type: physicochemical; conditions: Superdex200 10/300 GL, 20 mM Tris pH 7.5, 150 mM NaCl, 50 μM ZnCl2, 1 mM DTT
Procedure: Supplementary Fig. 3 Superimposition of gel-filtration curves of PHD6 and ePHD6 domains of MLL3 and MLL4. Gel filtration chromatography of MLL3 ePHD6 (red), PHD6 (pink), MLL4 ePHD6 (brown), PHD6 (green) and protein molecular weight standards (blue, Bio-Rad). Samples were loaded to the Superdex200 10/300 GL (GE Healthcare) column in the buffer containing 20 mM Tris, pH 7.5, 150 mM NaCl, 50 μM ZnCl2,and1mMDTT. […]

[2] = tested on: recombinant nucleosomes (histone H3K4); experiment: In vitro histone methyltransferase (HMT) assay of MLL3/MLL4 constructs; type: biochemical; conditions: recombinant nucleosomes 0.5 μg, 2.5 μCi [3H]-SAM, 30 °C, 16 h, autoradiography (Fig. 3b, c)
Procedure: Mammalian expression plasmids encoding different fusions of MLL3 PHD and SET domains were subcloned into the pFLAG-CMV2 vector (Sigma-Aldrich, E7033) and were transiently expressed in HEK 293T cells (ATCC® ACS-4500™) by using Lipofectamine 2000 (ThermoFisher Scientific, 11668027) according to manufacturer’s protocol. Two days after transfection, cells were harvested and then lysed by mammalian lysis buffer (20 mM Tris-HCl, 137 mM NaCl, 1.5 mM MgCl2, 1 mM EDTA, 10% glycerol, 1% Triton X-100, 0.2 mM PMSF, 1 μg mL^−1 aprotinin, 2.5 μg mL^−1 leupeptin, and 1 μg mL^−1 pepstatin at pH 8.0). FLAG immunoprecipitation (FLAG IP) was performed in a similar way as described previously. In brief, total cell lysates were incubated with anti-FLAG M2 Affinity Gel (Sigma-Aldrich, A2220) in 4 °C for 5 h and were extensively washed with BC500 (20 mM Tris-HCl, 500 mM KCl, 1.5 mM MgCl2, 0.2 mM EDTA, 10% glycerol, 0.2 mM PMSF at pH 8.0). […]
HMT assay was performed according to a previously described method with minor modifications. […] The signals for HMT activity were detected by autoradiography. The input of the MLL3/4 proteins and nucleosomes were detected by mouse monoclonal anti-FLAG M2 (Sigma-Aldrich, F3165, 1:1000) and rabbit polyclonal anti-H3 antibody (Abcam, ab1791, 1:1000), respectively. […]

B1: MLL4 ePHD6: extended PHD6 domain of MLL4 (protein)
chain: VSCMQCGAASPGFHCEWQNSYTHCGPCASLVTCPICHAPYVEEDLLIQCRHCERWMHAGCESLFTEDDVEQAADEGFDCVSCQPYVVKPV
modifications: left off: GST, N-terminal, cleaved | His tag, N-terminal, cleaved
oligomeric state in solution [1]: dimer in solution

B2: MLL3_C: C terminus of MLL3 with the catalytic SET domain (protein)
chain: DHTFRVGSLIFHTIGQLLPQQMQAFHSPKALFPVGYEASRLYWSTRYANRRCRYLCSIEEKDGRPVFVIRIVEQGHEDLVLSDISPKGVWDKILEPVACVRKKSEMLQLFPAYLKGEDLFGLTVSAVARIAESLPGVEACENYTFRYGRNPLMELPLAVNPTGCARSEPKMSAHVKRFVLRPHTLNSTSTSKSFQSTVTGELNAPYSKQFVHSKSSQYRKMKTEWKSNVYLARSRIQGLGLYAARDIEKHTMVIEYIGTIIRNEVANRKEKLYESQNRGVYMFRMDNDHVIDATLTGGPARYINHSCAPNCVAEVVTFERGHKIIISSSRRIQKGEELCYDYKFDFEDDQHKIPCHCGAVNCRKWMN
modifications: left off: FLAG, end not stated, kept
notes: C terminus of MLL3 with the catalytic SET domain
nucleosomal methyltransferase activity [2]: did not show any detectable nucleosomal methylation activity

B3: MLL3 ePHD6: extended PHD6 domain of MLL3 (protein)
chain: VWCRHCGATSAGLRCEWQNNYTQCAPCASLSSCPVCYRNYREEDLILQCRQCDRWMHAVCQNLNTEEEVENVADIGFDCSMCRPYMPASN
modifications: left off: GST, N-terminal, cleaved | His tag, N-terminal, cleaved
oligomeric state in solution [1]: monomer in solution
